Patent publication US20240076398A1

How the values were obtained:
[1] = target: human C5aR1 (complement component 5a receptor 1) (human) (UniProt P21730); experiment: flow cytometry, Expi293 with transient human C5aR1, secondary antibody alone; mock 3,052
[2] = target: human C5aR1 (complement component 5a receptor 1) (human) (UniProt P21730); experiment: flow cytometry, Expi293 with transient human C5aR1, 100 nM antibody; mock 3,722

Sequence of human C5aR1 (complement component 5a receptor 1) (human) (P21730 other isoform, or with tags, fused parts or gaps): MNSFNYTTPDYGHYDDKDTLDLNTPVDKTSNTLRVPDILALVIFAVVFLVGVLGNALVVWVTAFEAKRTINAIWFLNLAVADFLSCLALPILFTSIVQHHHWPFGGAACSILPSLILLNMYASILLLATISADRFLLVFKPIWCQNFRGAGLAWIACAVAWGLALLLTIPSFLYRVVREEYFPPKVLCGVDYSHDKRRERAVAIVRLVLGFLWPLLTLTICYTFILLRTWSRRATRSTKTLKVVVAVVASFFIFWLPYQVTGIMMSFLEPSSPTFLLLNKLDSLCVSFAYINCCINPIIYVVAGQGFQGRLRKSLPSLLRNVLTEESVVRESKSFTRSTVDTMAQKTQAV

geometric mean fluorescent intensity [1]	geometric mean fluorescent intensity [2]	Substance
5350		Anti-human-APC secondary antibody alone
	6550	Isotype control (Table 6) (antibody)
